Residues, ends and D or L forms follow the SMILES beside them. *: point of attachment. Cbz = O=C(OCc1ccccc1)*
What was measured:
[1] = system: transgenic plants expressing full-length HopM1; experiment: DEX spraying of transgenic plants expressing full-length HopM1: leaf necrosis; type: in vivo, Arabidopsis
Experimental: (§1) Following inoculation, infected plants were monitored daily over a 3- to 4-day period for symptom development and bacterial multiplication. For experiments described in FIGS. 1 and 5, plants were sprayed with 30 μM dexamethasone (DEX) 24 h before bacterial inoculation (1×10^6 cfu/ml).

[2] = system: HopM1-mediated destabilization of AtMIN7; experiment: Immunoblot of HopM1-mediated destabilization of AtMIN7 with protease/proteasome inhibitors; type: cell-based; settings: N. benthamiana leaves co-expressing AtMIN7::HA and 6×His::HopM11-712
Excerpt: AtMIN-HA and 6×His-HopM1 proteins were detected using the HA and 6×His epitope antibodies, respectively. […] AtMIN7::HA and 6×His::HopM11-712 proteins were detected with HA and 6×His epitope antibodies, respectively.

AtMIN7 = experiment: Detection of polyubiquitinated AtMIN7 in planta (western blot, ubiquitin antibody); type: cell-based, Nicotiana benthamiana; settings: MG132-treated N. benthamiana leaves
Excerpt: Left: AtMIN7::HA and 6×His::HopM1-300, 6×His::HopM301-712 or 6×His::HopM1-712 were transiently co-expressed in MG132-treated N. benthamiana leaves. Ubiquitinated proteins were detected by western blot (WB) with a polyclonal ubiquitin (Ub) antibody (Sigma Co.). Right: AtMIN7::HA and 6×His::HopM1-712 were transiently co-expressed in 1% DMSO(−)- or MG132-treated N. benthamiana leaves. AtMIN7 was immunoprecipitated (IP) using a polyclonal AtMIN7 antibody. Ubiquitinated AtMIN7 protein was detected by western blot (WB) with a polyclonal ubiquitin (Ub) antibody (Sigma Co.). See Materials and Methods for transient expression and immunoprecipitation of AtMIN7 and HopM1 in N. benthamiana leaves.

Pst DC3000 ΔCEL mutant = experiment: Complementation of virulence defect in transgenic Arabidopsis expressing HopM1 or truncated derivatives; type: in vivo; settings: protein expressed in transgenic Arabidopsis after DEX
Experimental: as §1
(§2) Leaves were harvested and surface sterilized as follows: 1) whole leaves were removed from a host plant and gently mixed in a 70% ethanol solution for 1 minute. Leaves were blotted briefly on paper towels then rinsed in sterile distilled water for 1 minute, then blotted dry on paper towels. Leaf disks were excised from leaves with a 0.5 cm^2 or smaller cork borer, depending on the size of the sample leaves; 2) leaf disks from the leaves of 2 or more independent replicate plants were pooled for a single tissue sample and placed in a 1.5-mL microfuge tube with 100 μL sterile distilled water, the amount of leaf tissue per tube was recorded as leaf surface area. Three or more samples were harvested for each time point. […] The number of serial dilutions necessary to get countable colonies were determined for each sample, however dilutions to 10^−7 were usually sufficient for any bacterial strain; 7) The samples were plated on the appropriate medium (e.g., Low salt Luria Bertani) supplemented with the necessary antibiotics to select for the specific inoculated bacterial strain. […]

AtMIN7-HA = target: T1, AtMIN7-HA (Arabidopsis thaliana, UniProt F4IXW2, DEL212-213/INS429[…]); experiment: Protein pull-down assay and immunoblot in N. benthamiana leaves; type: binding; settings: transient co-expression in N. benthamiana leaves, Ni-NTA pull-down
T1 construct: expressed in transfected cells; host or cells: Nicotiana benthamiana leaves, Agrobacterium tumefaciens C58C1 co-infiltration (pBI121-AtMIN or pBAR1-AtMIN)
Excerpt: N. benthamiana plants were transiently transformed with HopM1 and AtMIN proteins. In brief, fully expanded N. benthamiana leaves were co-infiltrated with Agrobacterium tumefaciens C58 C1 (for an example of co-infiltration techniques, see, Hellens, et al. (2005) Plant Methods, 1:13; herein incorporated by reference) comprising plasmids and genes described herein (for example, see, Bechtold, et al. (1993) Comptes Rendus De L Academie Des Sciences Serie Iii-Sciences De La Vie-Life Sciences 316(10):1194-1199; herein incorporated by reference).
In brief: leaf disc fractions were homogenized in 1×SDS-polyacrylamide gel electrophoresis (PAGE) sample buffer, boiled for 5 min, and centrifuged for 2 minutes. Proteins in the supernatant were separated on SDS-PAGE gels and transferred to Immobilon-P membrane for immunoblotting procedures (Millipore Corp., Bedford, Mass.).
Protein pull-down analysis methods: N. benthamiana leaf discs were homogenized in lysis buffer (50 mM Tris-HCl pH=8.0, 250 mM NaCl, 10 mM β-mercaptoethanol, 1% Triton X100, 1 mM PMSF, plant protease inhibitor cocktail [Sigma Co.]). Total protein extracts were collected after centrifugation of the homogenate at 20,000-x g for 15 min at 4° C. to remove insoluble materials. […] AtMIN10-HA was detected using the HA epitope antibody.

Pst DC3000 = experiment: Bacterial multiplication and disease symptoms in transgenic Arabidopsis expressing HopM1 truncated derivatives; type: in vivo; settings: fragment expressed in transgenic Arabidopsis
Experimental: as §1, §2

[3] = system: Pst DC3000 ΔCEL mutant-pORF43 bacteria; experiment: as above; type: in vivo; settings: fragment expressed in transgenic Arabidopsis, compared with Col-0 gl1 or other truncated derivatives
Experimental: as §1, §2

T1 sequence (F4IXW2 with tags, fused parts or gaps DEL212-213/INS429[withheld]): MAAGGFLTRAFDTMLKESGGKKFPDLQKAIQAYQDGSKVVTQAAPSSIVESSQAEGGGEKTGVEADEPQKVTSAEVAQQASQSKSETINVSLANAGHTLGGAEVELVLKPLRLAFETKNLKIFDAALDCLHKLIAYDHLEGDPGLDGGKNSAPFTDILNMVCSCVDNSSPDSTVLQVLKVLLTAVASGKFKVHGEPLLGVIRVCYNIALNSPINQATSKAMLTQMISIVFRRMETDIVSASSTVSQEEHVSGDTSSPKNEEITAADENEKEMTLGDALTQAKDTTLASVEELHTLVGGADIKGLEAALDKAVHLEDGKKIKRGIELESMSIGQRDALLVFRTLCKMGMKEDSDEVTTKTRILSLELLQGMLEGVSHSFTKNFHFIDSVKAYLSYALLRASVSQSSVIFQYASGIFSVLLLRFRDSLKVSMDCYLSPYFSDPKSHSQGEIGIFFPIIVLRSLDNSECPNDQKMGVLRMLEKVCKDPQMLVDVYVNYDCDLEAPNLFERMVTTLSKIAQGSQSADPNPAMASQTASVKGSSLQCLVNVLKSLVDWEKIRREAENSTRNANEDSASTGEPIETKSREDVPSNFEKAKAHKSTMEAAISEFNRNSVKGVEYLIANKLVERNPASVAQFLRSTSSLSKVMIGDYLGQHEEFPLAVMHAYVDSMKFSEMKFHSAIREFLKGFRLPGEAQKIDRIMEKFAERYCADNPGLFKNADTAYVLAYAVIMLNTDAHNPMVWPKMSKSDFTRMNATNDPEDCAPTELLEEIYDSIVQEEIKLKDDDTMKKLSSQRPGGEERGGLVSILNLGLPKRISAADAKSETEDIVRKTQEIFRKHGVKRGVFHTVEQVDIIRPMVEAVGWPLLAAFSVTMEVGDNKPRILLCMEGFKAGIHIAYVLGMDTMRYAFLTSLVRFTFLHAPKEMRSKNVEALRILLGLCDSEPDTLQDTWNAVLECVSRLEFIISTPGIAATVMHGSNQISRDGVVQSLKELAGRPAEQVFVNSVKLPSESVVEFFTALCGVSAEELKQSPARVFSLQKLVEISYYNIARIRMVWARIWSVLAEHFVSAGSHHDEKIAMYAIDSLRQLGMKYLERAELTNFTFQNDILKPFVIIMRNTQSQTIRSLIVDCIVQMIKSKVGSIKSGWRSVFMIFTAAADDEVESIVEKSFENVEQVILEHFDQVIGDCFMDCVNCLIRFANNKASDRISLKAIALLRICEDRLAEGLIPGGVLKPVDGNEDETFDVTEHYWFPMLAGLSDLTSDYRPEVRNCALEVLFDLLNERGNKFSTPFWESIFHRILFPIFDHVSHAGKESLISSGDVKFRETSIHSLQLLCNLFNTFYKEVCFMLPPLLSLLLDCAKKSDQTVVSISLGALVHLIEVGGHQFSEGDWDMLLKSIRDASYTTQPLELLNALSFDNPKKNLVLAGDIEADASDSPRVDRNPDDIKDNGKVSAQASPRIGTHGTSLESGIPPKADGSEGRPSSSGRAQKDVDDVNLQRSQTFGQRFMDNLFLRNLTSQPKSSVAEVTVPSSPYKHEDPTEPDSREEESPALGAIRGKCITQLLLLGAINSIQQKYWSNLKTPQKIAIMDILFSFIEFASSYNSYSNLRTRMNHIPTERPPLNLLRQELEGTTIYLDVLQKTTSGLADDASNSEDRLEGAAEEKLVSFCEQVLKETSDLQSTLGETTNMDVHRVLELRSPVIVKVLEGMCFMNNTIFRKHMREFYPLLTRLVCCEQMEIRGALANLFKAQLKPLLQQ

## C[C@@H]1C[C@H]2[C@@H]3CCC4=CC(=O)C=C[C@]4(C)[C@@]3(F)[C@@H](O)C[C@]2(C)[C@@]1(O)C(=O)CO [DEX, dexamethasone]
[1]; 0.003 μM DEX spray
  leaf necrosis: did not induce leaf necrosis
[1]; 30 μM DEX spray
  time to rapid leaf necrosis: ≤ 10 h

## CC(C)C[C@@H](C=O)NC(=O)[C@H](CC(C)C)NC(=O)[C@H](CC(C)C)NC(=O)OCc1ccccc1 [MG132] (Cbz-Leu-Leu-Leu-aldehyde)
[2]
  effect on HopM1-mediated destabilization of AtMIN7: blocked

## CC[C@H](C)[C@H](NC(=O)[C@H]([C@@H](C)CC)N(C)C(C)=O)C(=O)N[C@H](C(=O)N[C@@H](CC(C)C)C(=O)[C@@]1(C)CO1)[C@@H](C)O [epoxomicin]
[2]
  effect on HopM1-mediated destabilization of AtMIN7: blocked

B1: full-length HopM1: Pst DC3000 HopM1, a 712-aa type III effector virulence protein (SEQ ID NO:34) (protein)
chain: MISSRIGGAGGVELSRVNQQHDTVPAQTAHPNAVTAGMNPPLTPDQSGSHATESSSAGAARLNVAARHTQLLQAFKAEHGTAPVSGAPMISSRAALLIGSLLQAEPLPFEVMAEKLSPERYQLKQFQGSDLQQRLEKFAQPGQIPDKAEVGQLIKGFAQSVADQLEHFQLMHDASPATVGQHAKADKATLAVSQTALGEYAGRASKAIGEGLSNSIASLDEHISALDLTLQDAEQGNKESLHADRQALVDAKTTLVGLHADFVKSPEAKRLASVAAHTQLDNVVSDLVTARNTVGGWKGAGPIVAAAVPQFLSSMTHLGYVRLSTSDKLRDTIPETSSDANMLKASIIGMVAGIAHETVNSVVKPMFQAALQKTGLNERLNMVPMKAVDTNTVIPDPFELKSEHGELVKKTPEEVAQDKAFVKSERALLNQKKVQGSSTHPVGELMAYSAFGGSQAVRQMLNDVHQINGQTLSARALASGFGGAVSASSQTLLQLKSNYVDPQGRKIPVFTPDRAESDLKKDLLKGMDLREPSVRTTFYSKALSGIQSSALTSALPPVTAQAEGASGTLSAGAILRNMALAATGSVSYLSTLYTNQSVTAEAKALKAAGMGGATPMLDRTETALNNIRHPNRESLPHTFQKSTLSGIPRVAENAYHMGRGALQLPTQMAVDTVRVVDEGVLNAVASAREALKQPTKDDDALRALEEGLLDPR
modifications: Pseudomonas syringae pv. tomato str. DC3000
AtMIN7
  polyubiquitination of AtMIN7 in vivo: enhanced
Pst DC3000 ΔCEL mutant
  complementation of the virulence defect (multiplication, chlorosis) of the Pst DC3000 ΔCEL mutant: almost fully complemented

B2: HopM1101-712: HopM1 truncated derivative lacking the first 100 aa (SEQ ID NO:98) (protein, listed as Pseudomonas syringae)
chain: LLQAFKAEHGTAPVSGAPMISSRAALLIGSLLQAEPLPFEVMAEKLSPERYQLKQFQGSDLQQRLEKFAQPGQIPDKAEVGQLIKGFAQSVADQLEHFQLMHDASPATVGQHAKADKATLAVSQTALGEYAGRASKAIGEGLSNSIASLDEHISALDLTLQDAEQGNKESLHADRQALVDAKTTLVGLHADFVKSPEAKRLASVAAHTQLDNVVSDLVTARNTVGGWKGAGPIVAAAVPQFLSSMTHLGYVRLSTSDKLRDTIPETSSDANMLKASIIGMVAGIAHETVNSVVKPMFQAALQKTGLNERLNMVPMKAVDTNTVIPDPFELKSEHGELVKKTPEEVAQDKAFVKSERALLNQKKVQGSSTHPVGELMAYSAFGGSQAVRQMLNDVHQINGQTLSARALASGFGGAVSASSQTLLQLKSNYVDPQGRKIPVFTPDRAESDLKKDLLKGMDLREPSVRTTFYSKALSGIQSSALTSALPPVTAQAEGASGTLSAGAILRNMALAATGSVSYLSTLYTNQSVTAEAKALKAAGMGGATPMLDRTETALNNIRHPNRESLPHTFQKSTLSGIPRVAENAYHMGRGALQLPTQMAVDTVRVVDEGVLNAVASAREALKQPTKDDDALRALEEGLLDPR
Pst DC3000 ΔCEL mutant
  complementation of the virulence defect (multiplication, chlorosis) of the Pst DC3000 ΔCEL mutant: partially restored

B3: HopM11-300: N-terminal protective fragment of HopM1, amino acids 1-300 (SEQ ID NO:82) (protein, listed as Pseudomonas syringae)
chain: MISSRIGGAGGVELSRVNQQHDTVPAQTAHPNAVTAGMNPPLTPDQSGSHATESSSAGAARLNVAARHTQLLQAFKAEHGTAPVSGAPMISSRAALLIGSLLQAEPLPFEVMAEKLSPERYQLKQFQGSDLQQRLEKFAQPGQIPDKAEVGQLIKGFAQSVADQLEHFQLMHDASPATVGQHAKADKATLAVSQTALGEYAGRASKAIGEGLSNSIASLDEHISALDLTLQDAEQGNKESLHADRQALVDAKTTLVGLHADFVKSPEAKRLASVAAHTQLDNVVSDLVTARNTVGGWKGA
AtMIN7-HA
  physical interaction with AtMIN7-HA: physical interaction
Pst DC3000
  susceptibility to Pst DC3000: still susceptible
[3]
  disease symptoms (necrosis and chlorosis) and bacterial multiplication within plants: significantly reduced

B4: 6×His-HopM1301-712: 6×His-tagged C-terminal HopM1 fragment, amino acids 301-712 (protein)
chain: GPIVAAAVPQFLSSMTHLGYVRLSTSDKLRDTIPETSSDANMLKASIIGMVAGIAHETVNSVVKPMFQAALQKTGLNERLNMVPMKAVDTNTVIPDPFELKSEHGELVKKTPEEVAQDKAFVKSERALLNQKKVQGSSTHPVGELMAYSAFGGSQAVRQMLNDVHQINGQTLSARALASGFGGAVSASSQTLLQLKSNYVDPQGRKIPVFTPDRAESDLKKDLLKGMDLREPSVRTTFYSKALSGIQSSALTSALPPVTAQAEGASGTLSAGAILRNMALAATGSVSYLSTLYTNQSVTAEAKALKAAGMGGATPMLDRTETALNNIRHPNRESLPHTFQKSTLSGIPRVAENAYHMGRGALQLPTQMAVDTVRVVDEGVLNAVASAREALKQPTKDDDALRALEEGLLDPR
modifications: left off: small tags and cut ends
AtMIN7-HA
  physical interaction with AtMIN7-HA: no interaction
